Here are results for 16 variants from the supplement of paper PMC7125110.

± gives the standard error. For part of these data: Variants at the floor of the assay were thinned out.

One may read the kcat as the number of substrate molecules converted per active site and unit of time at saturation. Usually KM stands for the substrate concentration at which the rate is half of its maximum.

To fix the notation:
B1: glmS ribozyme (parent)
chain: AUAAAAGCGCCAGAACUACAGAAAUGUAGUUGACGAGGAGGAGGUUUAUCGAAUUUUCGGCGGAUGCCUCCAAA

What all share (conditions): with glucosamine-6-phosphate
Variants of B1 are the subject of data set [1]. Kind of data set: kcat; higher = faster cleavage; RNA array. The method in brief: (§1)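 Barcoded glmS ribozyme variants on sequenced MiSeq chips were transcribed in situ by E. coli RNA polymerase and tracked through a hybridised Cy3 probe at 37 °C. Glucosamine-6-phosphate (40 μM to 10 mM) in HEPES/KCl/Mg(OAc)2 buffer was flowed in, and tiles were imaged over ~14 h. Signals were normalised to baseline and to non-cleaving reference variants; per-tile medians were fit to one- or two-exponential decays to give kobs. kcat and KM came from weighted Michaelis–Menten fits across concentrations.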

Data set [2] covers variants of B1. Kind of data set: KM; higher = weaker cofactor use; RNA array. The procedure, abridged:
as §1

The variants in data set [3] derive from B1. Kind of data set: self-cleavage kobs at 40 uM GlcN6P; higher = faster cleavage; RNA array. The method in brief:
as §1

The variants in data set [4] derive from B1. Kind of data set: self-cleavage kobs at 640 uM GlcN6P; higher = faster cleavage; RNA array. The procedure, abridged: as §1
The variants in data set [5] derive from B1. Put plainly: self-cleavage kobs at 2500 uM GlcN6P; higher = faster cleavage; RNA array. The procedure, abridged: as §1
The variants in data set [6] derive from B1. Put plainly: self-cleavage kobs at 10000 uM GlcN6P; higher = faster cleavage; RNA array. The procedure, abridged:
as §1

The variants in data set [7] derive from B1. Put plainly: self-cleavage kobs at 160 uM GlcN6P; higher = faster cleavage; RNA array. The method in brief:
as §1

As to C58U, the catalytic constant (kcat) with glucosamine-6-phosphate [1] is 0.00011 ± 3.8e-06 s⁻¹. In addition, in the data set with glucosamine-6-phosphate [2], the KM was 4350 ± 360 µM. Further, in the data set with glucosamine-6-phosphate [3], the “self-cleavage kobs at 40 uM GlcN6P” value was below 1e-05 s⁻¹. In addition, the “self-cleavage kobs at 640 uM GlcN6P” value in the data set with glucosamine-6-phosphate [4] turned out to be 1.66e-05 ± 1.8e-06 s⁻¹. The “self-cleavage kobs at 2500 uM GlcN6P” value with glucosamine-6-phosphate [5] was found to be 3.96e-05 ± 1.2e-06 s⁻¹. For the same variant, the “self-cleavage kobs at 10000 uM GlcN6P” value in the data set with glucosamine-6-phosphate [6] was 7.7e-05 ± 1.3e-06 s⁻¹.
In the case of U47C U56C A64G, in the data set with glucosamine-6-phosphate [1], the kcat stood at 6.84e-05 ± 1.6e-05 s⁻¹. The “self-cleavage kobs at 640 uM GlcN6P” value with glucosamine-6-phosphate [4] stood at 6.85e-05 ± 1.9e-05 s⁻¹. Moreover, the “self-cleavage kobs at 2500 uM GlcN6P” value with glucosamine-6-phosphate [5] worked out at 5.93e-05 ± 1.5e-05 s⁻¹.
Regarding A6G A12C, in the data set with glucosamine-6-phosphate [1], the kcat was determined as 0.000313 ± 8.2e-05 s⁻¹. The “self-cleavage kobs at 2500 uM GlcN6P” value with glucosamine-6-phosphate [5] is 6.08e-05 ± 3e-05 s⁻¹. The “self-cleavage kobs at 10000 uM GlcN6P” value with glucosamine-6-phosphate [6] worked out at 0.000159 ± 1.7e-05 s⁻¹.
In the case of A36G U69G, in the data set with glucosamine-6-phosphate [1], the kcat turned out to be 2.8e-05 ± 8.7e-06 s⁻¹. For the same variant, the “self-cleavage kobs at 160 uM GlcN6P” value with glucosamine-6-phosphate [7] amounted to 3.18e-05 ± 1.6e-05 s⁻¹. For the same variant, in the data set with glucosamine-6-phosphate [4], the “self-cleavage kobs at 640 uM GlcN6P” value stood at 4.85e-05 ± 1.9e-05 s⁻¹.
In the case of C11U U31A, the catalytic constant (kcat) with glucosamine-6-phosphate [1] came to 0.00134 ± 0.00062 s⁻¹. Moreover, the “self-cleavage kobs at 160 uM GlcN6P” value with glucosamine-6-phosphate [7] came out at 9.69e-05 ± 2.6e-05 s⁻¹. In the data set with glucosamine-6-phosphate [4], the “self-cleavage kobs at 640 uM GlcN6P” value amounted to 0.000376 ± 6.7e-05 s⁻¹. In addition, the “self-cleavage kobs at 2500 uM GlcN6P” value in the data set with glucosamine-6-phosphate [5] stood at 0.000431 ± 0.00012 s⁻¹. In addition, in the data set with glucosamine-6-phosphate [6], the “self-cleavage kobs at 10000 uM GlcN6P” value stood at 0.00146 ± 0.00025 s⁻¹.
Consider U69C C71U, for which the kcat with glucosamine-6-phosphate [1] turned out to be 0.000591 ± 7.2e-05 s⁻¹. Further, in the data set with glucosamine-6-phosphate [2], the KM worked out at 368 ± 88 µM. Besides, the “self-cleavage kobs at 40 uM GlcN6P” value in the data set with glucosamine-6-phosphate [3] is 5.8e-05 ± 1.1e-05 s⁻¹. The “self-cleavage kobs at 160 uM GlcN6P” value with glucosamine-6-phosphate [7] worked out at 0.000208 ± 5.6e-05 s⁻¹. Also, the “self-cleavage kobs at 640 uM GlcN6P” value in the data set with glucosamine-6-phosphate [4] was found to be 0.000326 ± 9.3e-05 s⁻¹. Also, the “self-cleavage kobs at 2500 uM GlcN6P” value with glucosamine-6-phosphate [5] amounted to 0.000432 ± 9.4e-05 s⁻¹. Also, the “self-cleavage kobs at 10000 uM GlcN6P” value with glucosamine-6-phosphate [6] stood at 0.000676 ± 0.00011 s⁻¹.
For A33C U56A, the kcat with glucosamine-6-phosphate [1] stood at 0.000161 ± 5.6e-05 s⁻¹. The “self-cleavage kobs at 10000 uM GlcN6P” value with glucosamine-6-phosphate [6] amounted to 8.05e-05 ± 1.2e-05 s⁻¹.
Regarding G66U C68U, in the data set with glucosamine-6-phosphate [1], the kcat came to 0.000348 ± 2.4e-05 s⁻¹. In addition, in the data set with glucosamine-6-phosphate [2], the Michaelis-Menten constant (KM) is 1260 ± 190 µM. For the same variant, in the data set with glucosamine-6-phosphate [3], the “self-cleavage kobs at 40 uM GlcN6P” value was 2.21e-05 ± 1e-05 s⁻¹. In the data set with glucosamine-6-phosphate [7], the “self-cleavage kobs at 160 uM GlcN6P” value was 3.82e-05 ± 1.3e-05 s⁻¹. In the data set with glucosamine-6-phosphate [4], the “self-cleavage kobs at 640 uM GlcN6P” value is 0.000116 ± 1.2e-05 s⁻¹. Besides, the “self-cleavage kobs at 2500 uM GlcN6P” value with glucosamine-6-phosphate [5] came to 0.000226 ± 4e-05 s⁻¹. In the data set with glucosamine-6-phosphate [6], the “self-cleavage kobs at 10000 uM GlcN6P” value was determined as 0.000311 ± 2.9e-05 s⁻¹.
For the variant A15C C58A, the kcat in the data set with glucosamine-6-phosphate [1] stood at 0.000185 ± 2.6e-05 s⁻¹. For the same variant, in the data set with glucosamine-6-phosphate [2], the KM came out at 2130 ± 720 µM. Also, the “self-cleavage kobs at 640 uM GlcN6P” value in the data set with glucosamine-6-phosphate [4] is 5.17e-05 ± 1.2e-05 s⁻¹. Further, the “self-cleavage kobs at 2500 uM GlcN6P” value with glucosamine-6-phosphate [5] is 8.54e-05 ± 1.6e-05 s⁻¹. Further, in the data set with glucosamine-6-phosphate [6], the “self-cleavage kobs at 10000 uM GlcN6P” value was 0.00016 ± 2.1e-05 s⁻¹.
On to U31A A53U, for which the kcat with glucosamine-6-phosphate [1] worked out at 0.02 ± 0.007 s⁻¹. In addition, the KM with glucosamine-6-phosphate [2] turned out to be 3760 ± 1700 µM. Further, the “self-cleavage kobs at 40 uM GlcN6P” value in the data set with glucosamine-6-phosphate [3] was determined as 0.000232 ± 3.6e-05 s⁻¹. In addition, the “self-cleavage kobs at 160 uM GlcN6P” value in the data set with glucosamine-6-phosphate [7] worked out at 0.000911 ± 0.00027 s⁻¹. For the same variant, in the data set with glucosamine-6-phosphate [4], the “self-cleavage kobs at 640 uM GlcN6P” value stood at 0.00278 ± 0.00064 s⁻¹. Further, in the data set with glucosamine-6-phosphate [5], the “self-cleavage kobs at 2500 uM GlcN6P” value was 0.00529 ± 0.0016 s⁻¹. In addition, the “self-cleavage kobs at 10000 uM GlcN6P” value with glucosamine-6-phosphate [6] is 0.0181 ± 0.0034 s⁻¹.
Take G35A G37A: the kcat with glucosamine-6-phosphate [1] is below 1e-05 s⁻¹. Besides, the “self-cleavage kobs at 160 uM GlcN6P” value with glucosamine-6-phosphate [7] is below 1e-05 s⁻¹.
For the variant A12G C70A, the kcat in the data set with glucosamine-6-phosphate [1] worked out at 0.000118 ± 8.6e-06 s⁻¹. Besides, in the data set with glucosamine-6-phosphate [2], the KM came to 1110 ± 270 µM. Further, the “self-cleavage kobs at 640 uM GlcN6P” value with glucosamine-6-phosphate [4] was 4.35e-05 ± 7.9e-06 s⁻¹. Also, the “self-cleavage kobs at 2500 uM GlcN6P” value with glucosamine-6-phosphate [5] is 7.34e-05 ± 1.3e-05 s⁻¹. The “self-cleavage kobs at 10000 uM GlcN6P” value in the data set with glucosamine-6-phosphate [6] was 0.000108 ± 9.4e-06 s⁻¹.
For the variant A36C G59A, the kcat in the data set with glucosamine-6-phosphate [1] was below 1e-05 s⁻¹. Further, the “self-cleavage kobs at 2500 uM GlcN6P” value with glucosamine-6-phosphate [5] was below 1e-05 s⁻¹. In the data set with glucosamine-6-phosphate [6], the “self-cleavage kobs at 10000 uM GlcN6P” value was below 1e-05 s⁻¹.
Take U47G C71G: the kcat with glucosamine-6-phosphate [1] was 0.00028 ± 1.5e-05 s⁻¹. In addition, in the data set with glucosamine-6-phosphate [2], the KM was 685 ± 85 µM. Moreover, the “self-cleavage kobs at 160 uM GlcN6P” value with glucosamine-6-phosphate [7] came to 5.19e-05 ± 7.8e-06 s⁻¹. In addition, the “self-cleavage kobs at 640 uM GlcN6P” value with glucosamine-6-phosphate [4] was determined as 0.000146 ± 1.7e-05 s⁻¹. The “self-cleavage kobs at 2500 uM GlcN6P” value with glucosamine-6-phosphate [5] worked out at 0.000205 ± 2.8e-05 s⁻¹. Also, the “self-cleavage kobs at 10000 uM GlcN6P” value with glucosamine-6-phosphate [6] was determined as 0.000265 ± 2.4e-05 s⁻¹.
With C16G U55C, in the data set with glucosamine-6-phosphate [1], the catalytic constant (kcat) is 0.00146 ± 0.00056 s⁻¹. Also, the “self-cleavage kobs at 40 uM GlcN6P” value with glucosamine-6-phosphate [3] came out at 4.65e-05 ± 1.3e-05 s⁻¹. Also, in the data set with glucosamine-6-phosphate [7], the “self-cleavage kobs at 160 uM GlcN6P” value turned out to be 0.000158 ± 7.7e-05 s⁻¹. The “self-cleavage kobs at 640 uM GlcN6P” value in the data set with glucosamine-6-phosphate [4] was 0.000574 ± 8.2e-05 s⁻¹. In addition, in the data set with glucosamine-6-phosphate [5], the “self-cleavage kobs at 2500 uM GlcN6P” value worked out at 0.000702 ± 0.00013 s⁻¹. Further, in the data set with glucosamine-6-phosphate [6], the “self-cleavage kobs at 10000 uM GlcN6P” value was found to be 0.00213 ± 0.00033 s⁻¹.
For G44U A53G, the kcat with glucosamine-6-phosphate [1] came out at 0.000308 ± 2.1e-05 s⁻¹. For the same variant, the KM with glucosamine-6-phosphate [2] is 997 ± 240 µM. Also, the “self-cleavage kobs at 160 uM GlcN6P” value with glucosamine-6-phosphate [7] turned out to be 3.95e-05 ± 1.8e-05 s⁻¹. The “self-cleavage kobs at 2500 uM GlcN6P” value with glucosamine-6-phosphate [5] was 0.000223 ± 6e-05 s⁻¹. The “self-cleavage kobs at 10000 uM GlcN6P” value with glucosamine-6-phosphate [6] is 0.00028 ± 3.8e-05 s⁻¹.
